# Measured values: paper PMC5458760, “The LOTUS domain is a conserved DEAD-box RNA helicase regulator essential for the recruitment of Vasa to the germ plasm and nuage” (Genes & Development, 2017)
# T1: Vasa 200–661 (Drosophila, UniProt P09052 200-661)
# T1 construct: Vasa, Drosophila DEAD-box RNA helicase, helicase core with the C-terminal extension, residues 200-661; It may be the same preparation as His-Vasa 200–661; Construct details are in the Supplemental Material; also called Vasa helicase core; source: E. coli (Rosetta 2), purified
# T1 sequence (looked up): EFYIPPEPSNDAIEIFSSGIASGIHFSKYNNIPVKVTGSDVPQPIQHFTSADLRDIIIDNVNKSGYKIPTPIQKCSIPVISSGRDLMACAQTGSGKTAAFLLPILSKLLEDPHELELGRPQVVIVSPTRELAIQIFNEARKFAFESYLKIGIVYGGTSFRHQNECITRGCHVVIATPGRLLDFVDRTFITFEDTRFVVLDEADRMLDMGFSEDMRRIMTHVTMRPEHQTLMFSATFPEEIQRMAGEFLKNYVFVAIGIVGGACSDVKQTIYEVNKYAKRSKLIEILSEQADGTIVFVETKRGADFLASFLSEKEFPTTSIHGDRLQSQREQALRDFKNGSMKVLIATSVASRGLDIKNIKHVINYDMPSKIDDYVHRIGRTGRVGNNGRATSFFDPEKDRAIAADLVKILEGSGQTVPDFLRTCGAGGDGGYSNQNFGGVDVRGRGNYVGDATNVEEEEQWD
# T2: His-Vasa 200–661 (Drosophila, UniProt P09052 200-661)
# T2 construct: Vasa, Drosophila DEAD-box RNA helicase, helicase core with the C-terminal extension, residues 200-661; Construct details are in the Supplemental Material; also called His-tagged Vasa 200–661; wild-type Vasa helicase core; source: E. coli (Rosetta 2), purified
# T2 sequence (looked up): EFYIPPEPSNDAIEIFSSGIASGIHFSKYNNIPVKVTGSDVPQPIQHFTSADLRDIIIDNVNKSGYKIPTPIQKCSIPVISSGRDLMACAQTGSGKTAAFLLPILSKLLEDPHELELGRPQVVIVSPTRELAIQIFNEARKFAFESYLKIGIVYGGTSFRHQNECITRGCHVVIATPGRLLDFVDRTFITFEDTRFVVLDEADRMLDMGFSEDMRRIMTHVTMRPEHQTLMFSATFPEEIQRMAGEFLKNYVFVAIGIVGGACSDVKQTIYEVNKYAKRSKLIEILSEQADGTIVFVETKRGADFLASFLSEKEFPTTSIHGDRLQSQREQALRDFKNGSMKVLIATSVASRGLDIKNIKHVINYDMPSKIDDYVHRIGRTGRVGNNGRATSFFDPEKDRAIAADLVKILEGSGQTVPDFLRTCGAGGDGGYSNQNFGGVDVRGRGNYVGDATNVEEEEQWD
# T3: Vasa 463–623 (Drosophila, UniProt P09052 463-623)
# T3 construct: Vasa, Drosophila, C-terminal RecA-like domain without the C-terminal extension, residues 463-623; also called Vasa-CTD lacking the C-terminal extension; Vasa C-terminal RecA-like domain; source: E. coli (Rosetta 2), purified
# T3 sequence (looked up): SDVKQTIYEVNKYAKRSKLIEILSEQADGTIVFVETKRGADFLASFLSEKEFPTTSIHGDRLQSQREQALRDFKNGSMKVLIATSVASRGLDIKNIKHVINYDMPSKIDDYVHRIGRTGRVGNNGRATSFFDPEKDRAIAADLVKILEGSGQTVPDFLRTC
# T4: Vasa 463–661 (Drosophila, UniProt P09052 463-661)
# T4 construct: Vasa, Drosophila, C-terminal RecA-like domain with the C-terminal extension, residues 463-661; Details are in the Supplemental Material; also called Vasa-CTD; source: E. coli (Rosetta 2), purified
# T4 sequence (looked up): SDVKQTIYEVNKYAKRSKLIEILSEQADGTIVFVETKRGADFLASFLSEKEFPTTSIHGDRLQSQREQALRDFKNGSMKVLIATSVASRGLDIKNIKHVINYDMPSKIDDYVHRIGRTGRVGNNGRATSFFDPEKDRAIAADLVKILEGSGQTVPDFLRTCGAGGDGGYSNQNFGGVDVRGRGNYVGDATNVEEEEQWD
# Experiments:
# [1] = target: T1, Vasa 200–661; experiment: pull-down; GST pull-down with purified recombinant proteins; GST or GST fusion as bait (8.75-10 µM in the legends), Vasa as prey (17.5-20 µM in the legends); samples on an SDS gel stained with Coomassie brilliant blue; details: both partners purified
# [2] = target: T2, His-Vasa 200–661; experiment: as above; details: both partners purified
# [3] = target: T3, Vasa 463–623; experiment: crystal structure; Oskar 139–240 and Vasa 463–623 mixed in a 2:1 molar ratio; hanging drop vapor diffusion at 18°C; 1.4 Å; molecular replacement; details: both partners purified
# [4] = target: the molecule itself; experiment: as above
# [5] = target: T4, Vasa 463–661; experiment: ITC; Vasa 463–661 titrated to the Oskar LOTUS domain (144–240); 25°C; VP-ITC; 20 mM Tris pH 7.5, 150 mM sodium chloride; curve fitted with the LOTUS monomer concentration; details: both partners purified
binder,measurement,setting,value
"GST-Oskar LOTUS (amino acids 139–240) (domain or fragment, Drosophila, UniProt P25158 139-240, looked up, Oskar, Drosophila, LOTUS (eLOTUS) domain with its C-terminal extension, residues 139-240; residue numbers are those of the long isoform; Construct details are in the Supplemental Material; also called Oskar GST-LOTUS; GST fusion of the LOTUS domain of Oskar; source: E. coli (Rosetta 2), purified) MTIIESNYISVREEYPDIDSEVRAILLSHAQNGITISSIKSEYRKLTGNPFPLHDNVTDFLLTIPNVTAECSESGKRIFNLKASLKNGHLLDMVLNQKERTS",binding result,[1],binds
same,binding result,[2],binds
"Oskar 139–240 (LOTUS domain) (domain or fragment, Drosophila, UniProt P25158 139-240, looked up, Oskar, Drosophila, LOTUS (eLOTUS) domain with its C-terminal extension, residues 139-240; residue numbers are those of the long isoform; This is a dimer in the crystal; No tag is stated for the crystallised protein; also called LOTUS domain of Oskar (amino acids 139–240); eLOTUS; source: E. coli (Rosetta 2), purified) MTIIESNYISVREEYPDIDSEVRAILLSHAQNGITISSIKSEYRKLTGNPFPLHDNVTDFLLTIPNVTAECSESGKRIFNLKASLKNGHLLDMVLNQKERTS",binding result,[3],binds
same,stoichiometry N,[4],2
"Oskar LOTUS domain (amino acids 144–240) (domain or fragment, Drosophila, UniProt P25158 144-240, looked up, Oskar, Drosophila, LOTUS domain, residues 144-240; residue numbers are those of the long isoform; The legend notes that the LOTUS domain of Oskar forms dimers (Jeske et al. 2015); The ITC curve was fitted with the monomer concentration; Details are in the Supplemental Material; also called Osk 144–240; Oskar 144–240 (LOTUS); source: E. coli (Rosetta 2), purified) SNYISVREEYPDIDSEVRAILLSHAQNGITISSIKSEYRKLTGNPFPLHDNVTDFLLTIPNVTAECSESGKRIFNLKASLKNGHLLDMVLNQKERTS",Kd,[5],~10 µM
